From publication PMC10148139

Molecular target: MAGE D2 MAGE homology domain (MHD), amino acids 261–521 (human) (UniProt Q9UNF1)
Assay: MST

Chain of UniProt Q9UNF1 (Q9UNF1 261-521): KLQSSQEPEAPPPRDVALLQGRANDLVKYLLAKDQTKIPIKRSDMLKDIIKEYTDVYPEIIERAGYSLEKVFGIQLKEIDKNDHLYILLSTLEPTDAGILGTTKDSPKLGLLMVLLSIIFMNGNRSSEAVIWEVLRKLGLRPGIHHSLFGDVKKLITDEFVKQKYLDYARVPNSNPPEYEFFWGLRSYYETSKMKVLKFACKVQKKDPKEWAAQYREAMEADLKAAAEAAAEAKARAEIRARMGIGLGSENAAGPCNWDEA

Kd: 155 nM
Substance: Gαs AHD (amino acids 68–206), purified (from UniProt P63092-2 68-206) (domain or fragment)
